Where a SMILES comes first, the peptide text is derived from it. Where no end group is shown, it is not given here. [ ]: non-standard residue; d: D form. pY = N[C@@H](Cc1ccc(OP(=O)(O)O)cc1)C(=O)O
B1: SLP76 pY112 peptide (peptide)
peptide: EDD[pY]ESPND
B2: SLP76 pY128 peptide (peptide)
peptide: DGD[pY]ESPNE
B3: SH2-SH3B fragment of Vav1 (669-845) (domain or fragment, mouse, UniProt P27870 669-845, looked up)
chain: HLWYAGPMERAGAEGILTNRSDGTYLVRQRVKDTAEFAISIKYNVEVKHIKIMTSEGLYRITEKKAFRGLLELVEFYQQNSLKDCFKSLDTTLQFPYKEPERRAISKPPAGSTKYFGTAKARYDFCARDRSELSLKEGDIIKILNKKGQQGWWRGEIYGRIGWFPSNYVEEDYSEYC
B4: SH2 domain of Vav1 (669-771) (domain or fragment, mouse, UniProt P27870 669-771, looked up)
chain: HLWYAGPMERAGAEGILTNRSDGTYLVRQRVKDTAEFAISIKYNVEVKHIKIMTSEGLYRITEKKAFRGLLELVEFYQQNSLKDCFKSLDTTLQFPYKEPERR
B5: SH3A-SH2-SH3B fragment of Vav1 (596-845) (domain or fragment, mouse, UniProt P27870 596-845, looked up)
chain: KMEVFQEYYGIPPPPGAFGPFLRLNPGDIVELTKAEAEHNWWEGRNTATNEVGWFPCNRVHPYVHGPPQDLSVHLWYAGPMERAGAEGILTNRSDGTYLVRQRVKDTAEFAISIKYNVEVKHIKIMTSEGLYRITEKKAFRGLLELVEFYQQNSLKDCFKSLDTTLQFPYKEPERRAISKPPAGSTKYFGTAKARYDFCARDRSELSLKEGDIIKILNKKGQQGWWRGEIYGRIGWFPSNYVEEDYSEYC

Key:
[1] = target: T1, SH3A-SH2 fragment of Vav1 (596–771) (Mus musculus, UniProt P27870); test: Isothermal titration calorimetry; assay type: binding
T1 sequence (P27870 596-771): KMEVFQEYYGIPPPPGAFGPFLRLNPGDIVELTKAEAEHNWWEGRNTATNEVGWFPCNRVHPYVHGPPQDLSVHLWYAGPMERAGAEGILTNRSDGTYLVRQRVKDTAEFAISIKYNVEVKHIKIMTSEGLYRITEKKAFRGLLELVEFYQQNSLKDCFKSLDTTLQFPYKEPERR

[2] = target: T2, SH2-SH3B fragment of Vav1 (669–845) (Mus musculus, UniProt P27870); test: Isothermal titration calorimetry; assay type: binding
T2 sequence (P27870 669-845): B3 chain

[3] = target: B5; test: ITC
[4] = target: B4; test: ITC
[5] = target: B3; test: ITC
[6] = target: T3, SH3A-SH2 fragment of Vav1 (596-771) (mouse, UniProt P27870 596-771); test: ITC
T3 sequence (looked up): T1 sequence (P27870 596-771)

[7] = target: SLP76 2pY peptide (pY112 and pY128) (mouse, phosphotyrosine at Y112 and at Y128 (EDDp…pYESPNE)); test: ITC

NC(=O)C[C@H](NC(=O)[C@@H]1CCCN1C(=O)[C@H](CO)NC(=O)[C@H](CCC(=O)O)NC(=O)[C@H](Cc1ccc(OP(=O)(O)O)cc1)NC(=O)[C@H](CC(=O)O)NC(=O)[C@H](CC(=O)O)NC(=O)[C@@H](N)CCC(=O)O)C(=O)N[C@@H](CC(=O)O)C(=O)O [pY112] (HELM PEPTIDE1{E.D.D.[O=C([C@H](Cc1ccc(OP(=O)(O)O)cc1)N[*:1])[*:2]].E.S.P.N.D}$$$$V2.0)
Kd [1]: 1060 nM

NC(=O)C[C@H](NC(=O)[C@@H]1CCCN1C(=O)[C@H](CO)NC(=O)[C@H](CCC(=O)O)NC(=O)[C@H](Cc1ccc(OP(=O)(O)O)cc1)NC(=O)[C@H](CC(=O)O)NC(=O)CNC(=O)[C@@H](N)CC(=O)O)C(=O)N[C@@H](CCC(=O)O)C(=O)O [pY128] (HELM PEPTIDE1{D.G.D.[O=C([C@H](Cc1ccc(OP(=O)(O)O)cc1)N[*:1])[*:2]].E.S.P.N.E}$$$$V2.0)
Kd [2]: 1060 nM

B1
Kd [3]: 1850 nM | Kd [4]: 1640 nM | Kd [5]: 1320 nM

B2
Kd [3]: 1350 nM | Kd [6]: 1040 nM

B3
stoichiometry N [7]: 2

B4
stoichiometry N [7]: 2 SH2 domain:peptide

B5
stoichiometry N [7]: 2

Source: paper PMC3561853 (Journal of Cell Science, 2012)
